Columns and labels:
[1] = substrate: C[C@@H](O)[C@H]1C(=O)N2C(C(=O)O)=C(SCCNC=N)C[C@H]12; test: (§1) Activity of Pseudomonas aeruginosa beta-lactamase IMP-1 by UV spectrophotometric analysis
[2] = substrate: C[C@@H](O)[C@H]1C(=O)N2C(C(=O)[O-])=C(SC3Cn4cnc[n+]4C3)[C@H](C)[C@H]12; test: as §1
[3] = substrate: C[C@@H](O)[C@H]1C(=O)N2C(C(=O)O)=C(SCCNC=N)C[C@H]12; test: (§2) Ratio of Kcat to Km for Pseudomonas aeruginosa beta-lactamase IMP-1 by UV spectrophotometric analysis
[4] = substrate: C[C@@H](O)[C@H]1C(=O)N2C(C(=O)O)=C(S[C@@H]3CN[C@H](C(=O)N(C)C)C3)[C@H](C)[C@H]12; test: as §2
[5] = substrate: C[C@@H](O)[C@H]1C(=O)N2C(C(=O)[O-])=C(SC3Cn4cnc[n+]4C3)[C@H](C)[C@H]12; test: as §2

B1: Beta-lactamase (Pseudomonas aeruginosa), Q79MP6 (protein)
chain: MSKLSVFFIFLFCSIATAAESLPDLKIEKLDEGVYVHTSFEEVNGWGVVPKHGLVVLVNAEAYLIDTPFTAKDTEKLVTWFVERGYKIKGSISSHFHSDSTGGIEWLNSRSIPTYASELTNELLKKDGKVQATNSFSGVNYWLVKNKIEVFYPGPGHTPDNVVVWLPERKILFGGCFIKPYGLGNLGDANIEAWPKSAKLLKSKYGKAKLVVPSHSEVGDASLLKLTLEQAVKGLNESKKPSKPSN
[1]
  Km: 35.1 µM
  kcat: 63.5 s⁻¹
[2]
  Km: 167 µM
  kcat: 44.7 s⁻¹
[3]
  kcat/Km: 1.8e+06 M⁻¹ s⁻¹
[4]
  kcat/Km: 200000 M⁻¹ s⁻¹
[5]
  kcat/Km: 300000 M⁻¹ s⁻¹

Source: ChEMBL document CHEMBL1671717, “In vitro potentiation of carbapenems with ME1071, a novel metallo-beta-lactamase inhibitor, against metallo-beta-lactamase- producing Pseudomonas aeruginosa clinical isolates” (Antimicrob Agents Chemother, 2010)
